The data set deals with ORC (origin recognition complex) (Saccharomyces cerevisiae). Briefly: EMSA. As to conditions: 25 mM Tris-HCl pH 8.0, 5 mM MgCl2, 150 mM KCl, 40 ug BSA, 5% glycerol, 5 mM DTT, 1 ug calf-thymus DNA, 2 mM ATP; 5 pM probe, ORC 0.3-30 nM; 25 C 20 min; 3.5% …. In general terms: In EMSA bound probe runs differently from free probe, usually more slowly.

The Kd is the concentration at which binding is half-saturated. Read a low Kd as tighter binding.

Regarding ARS214 probe, the dissociation constant (Kd) came to 41.3 nM.

As for ARS514 probe, the Kd came out at 4.12 nM.

Take ARS1625 probe: the equilibrium dissociation constant (Kd) amounted to 8.67 nM. Compared with the last substance, the Kd is about 2.1-fold higher.

ARS1329 probe displayed a Kd of 76.8 nM.

The substance ARS1420 probe displayed a Kd of 17.8 nM.

In turn, ARS1513 probe returned a Kd of 56.3 nM.

ARS1005 probe displayed a Kd greater than 419 nM.

Consider ARS1323 probe, for which the Kd was found to be 58.6 nM.

ARS1528 probe displayed a Kd greater than 419 nM.

The substance ARS516 probe returned a Kd of 27.8 nM.

The substance ARS1413 probe yielded a dissociation constant (Kd) of 419 nM.

In the case of ARS1320 probe, the Kd was 20.9 nM.

ARS1405 probe displayed a Kd of 97.2 nM. This Kd lies about 4.7-fold higher than the previous one.

For the substance ARS219.5 probe, the Kd is greater than 419 nM.

Regarding ARS1015 probe, the equilibrium dissociation constant (Kd) is 63.1 nM.

ARS428 probe: the Kd stood at 91.6 nM.

For ARS1332 probe, the Kd is 35.3 nM. Against the preceding substance, the Kd is about 2.6-fold lower.

For ARS1529.5 probe, the equilibrium dissociation constant (Kd) stood at 192 nM.

ARS1123 probe showed a Kd of 12.3 nM. This Kd lies about 16-fold lower than the previous one.

Substance ARS818 probe registered a Kd of 94 nM.

Substance ARS1631 probe came in with a dissociation constant Kd of 26.8 nM.

Regarding ARS416 (ARS1) probe, the Kd amounted to 35.1 nM.

Substance ARS1011 probe had a Kd of 11.1 nM. This Kd lies about 3.2-fold lower than the previous one.

ARS305 probe registered a Kd of 33.1 nM.

In the case of ARS911 probe, the Kd was 87.3 nM. This Kd lies about 2.6-fold higher than the previous one.

As for ARS720 probe, the equilibrium dissociation constant (Kd) came to 33.9 nM. Against the preceding substance, the Kd is about 2.6-fold lower.

As for ARS317 (HMR-E) probe, the Kd came out at 7.22 nM.

In the case of ARS423 probe, the Kd amounted to 6.76 nM.

For the substance ARS1521 probe, the equilibrium dissociation constant (Kd) amounted to 90.1 nM.

Take ARS1215 probe: the Kd turned out to be 55.8 nM.

Substance ARS920 probe yielded a dissociation constant (Kd) of 8.65 nM.

ARS1325 probe: the equilibrium dissociation constant (Kd) is 63 nM.

ARS1601 probe gave a dissociation constant Kd of 32.8 nM. Against the preceding substance, the Kd is about 1.9-fold lower.

Substance ARS512 probe showed a Kd of 55.1 nM.

Regarding ARS1307 probe, the equilibrium dissociation constant (Kd) worked out at 83.7 nM.

ARS1114 probe showed a Kd of 33.3 nM.

Substance ARS422 probe registered a dissociation constant Kd of 9.85 nM. Against the preceding substance, the Kd is about 3.4-fold lower.

In turn, ARS822 probe came in with a Kd of 260 nM.

On to ARS604 probe, for which the dissociation constant (Kd) was 61 nM. Against the preceding substance, the Kd is about 4.3-fold lower.

Regarding ARS728 probe, the Kd stood at 8.38 nM. Compared with the last substance, the Kd is about 7.3-fold lower.

ARS201 probe registered a Kd of 20.1 nM.

In turn, ARS1004 probe showed a Kd of 92.3 nM.

In turn, ARS824 probe gave a Kd of 38.1 nM.

In the case of ARS1021 probe, the equilibrium dissociation constant (Kd) worked out at 17.9 nM. Compared with the last substance, the Kd is about 2.1-fold lower.

The substance ARS105 probe gave a Kd greater than 419 nM.

Consider ARS716 probe, for which the Kd is 39.2 nM. In other words, the double-digit nanomolar range.

Values taken from PMC3772097.
